In experiment [1] the target is T1, Human PD-L1 His (human PD-L1 ECD with C-terminal His tag) (human, UniProt Q9NZQ7 19-238).
T1 construct: Biotinylated in ELISA and AlphaScreen assays; also called hPD-L1-his; biotinylated PD-L1 his
As to the kind of experiment: ELISA, biotin-PD-L1 to plate-bound CD80, antibody titrated. The procedure: (§1) Excess protein was removed by washing with PBS-Tween (0.1% v/v) and the wells were blocked with 1% w/v bovine serum albumin (BSA, Sigma) in PBS for 1 hour at room temperature, after which plates were washed with PBS-Tween as above. 60 μL of a titration (three-fold serial dilution) of antibody was added to a 96-well, non-binding plate diluted in ELISA assay buffer (PBS +0.1% BSA). […] The plate was incubated for 30 minutes before transferring 50 μL to the coated plates. The coated plates were incubated for 1 hour at room temperature. Excess protein was removed by washing with PBS-Tween (0.1% v/v). PD-L1 binding was detected using streptavidin labelled europium (Perkin Elmer) diluted 1/1000 in DELFIA assay buffer (Perkin Elmer). The plates were washed with TBS (Tris buffered saline)-Tween (0.1% v/v) and 50 μL/well of DELFIA Enhancement solution (Perkin Elmer) was added to the plate. Time-resolved fluorescence was measured at 615 nm on an Envision plate reader (PerkinElmer). Percentage specific binding was calculated as defined in Equation 3. IC50 values were determined using GraphPad Prism software by curve fitting using a four-parameter logistic equation (Equation 4). Values for KM121 antibodies are a mean of three independent experiments. Values for KM122 are from a single experiment.

In experiment [2] the target is T1, Human PD-L1 His (human PD-L1 ECD with …). As to the kind of experiment: SPR 25C, antibody captured, PD-L1 analyte.
Experiment [3] shares this target. As to the kind of experiment: ELISA, biotin-PD-L1 to plate-bound PD-1, antibody titrated. The procedure:
as §1

T1 sequence (Q9NZQ7 19-238 limits assumed): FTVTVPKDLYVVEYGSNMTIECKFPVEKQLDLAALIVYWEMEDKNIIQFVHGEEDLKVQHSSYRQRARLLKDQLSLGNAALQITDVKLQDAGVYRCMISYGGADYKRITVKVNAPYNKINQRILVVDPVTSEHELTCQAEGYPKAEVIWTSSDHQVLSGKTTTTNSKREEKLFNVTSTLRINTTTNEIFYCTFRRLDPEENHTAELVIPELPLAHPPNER

B1: 389A03 (antibody, human IgG1, kappa, V domains shown)
VH: QLQESGPGLVKPSETLSLTCTVSGGSISSSSYYCGWIRQPPGKGLDWIGSIYSTGYTYYNPSLKSRVTISIDTSKNQFSCLILTSVTAADTAVYYCAISTAAGPEYFHRWGQGTLVTVSS
VL: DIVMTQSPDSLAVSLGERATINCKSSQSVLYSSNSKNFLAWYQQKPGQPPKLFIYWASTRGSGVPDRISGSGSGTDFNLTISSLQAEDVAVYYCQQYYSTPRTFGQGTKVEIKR
Take B1: the IC50 in experiment [1] was 13.2 nM.

B2: 1D05 V to A & F to S change in VH (Seq ID No: 342), IgG1 disabled (LAGA), with 1D05 kappa (antibody, V domains shown)
VH: EVQLVESGGGLVQPGRSLRLSCAASGFTFDDYAMHWVRQAPGKGLEWVSGISWIRTGIGYADSVKGRFTISRDNAKNSLYLQMNSLRAEDTALYYCAKDMKGSGTYGGWFDTWGQGTLVTVSS
VL: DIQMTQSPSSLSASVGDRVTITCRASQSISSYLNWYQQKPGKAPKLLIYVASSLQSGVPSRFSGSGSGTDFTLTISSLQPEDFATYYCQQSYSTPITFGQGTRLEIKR
notes: Entry 342 is a whole heavy chain; also called 1D05 HC mutant 4
As for B2, the Kd in experiment [2] is 0.23 nM.

B3: 1D05 F to S change in VH (Seq ID No: 48), IgG1 disabled (LAGA), with 1D05 kappa V to A change (Seq ID No: 50) (antibody, V domains shown)
VH: EVQLVESGGGLVQPGRSLRLSCAASGFTFDDYAMHWVRQVPGKGLEWVSGISWIRTGIGYADSVKGRFTISRDNAKNSLYLQMNSLRAEDTALYYCAKDMKGSGTYGGWFDTWGQGTLVTVSS
VL: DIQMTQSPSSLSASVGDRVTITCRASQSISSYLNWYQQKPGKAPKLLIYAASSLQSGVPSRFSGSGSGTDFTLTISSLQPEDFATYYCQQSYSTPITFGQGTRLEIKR
notes: See note of m59
In experiment [2], B3 registered a Kd of 1.94 nM.

B4: 1D05 V to A change in VH (Seq ID No: 47), IgG1 disabled (LAGA), with 1D05 kappa (antibody, V domains shown)
VH: EVQLVESGGGLVQPGRSLRLSCAASGFTFDDYAMHWVRQAPGKGLEWVSGISWIRTGIGYADSVKGRFTIFRDNAKNSLYLQMNSLRAEDTALYYCAKDMKGSGTYGGWFDTWGQGTLVTVSS
VL: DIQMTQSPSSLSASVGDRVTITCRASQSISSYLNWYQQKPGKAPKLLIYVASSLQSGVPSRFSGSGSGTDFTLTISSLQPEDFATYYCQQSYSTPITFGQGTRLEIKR
notes: Listing entry 47 is a whole heavy chain said to carry the IgG1 disabled (LAGA) constant region; also called 1D05 HC mutant 1
B4 showed a Kd in experiment [2] of 0.33 nM.

B5: 1D05 - IgG1 disabled (LAGA) with 1D05 kappa, V to A change (Seq ID No: 50) (antibody, V domains shown)
VH: EVQLVESGGGLVQPGRSLRLSCAASGFTFDDYAMHWVRQVPGKGLEWVSGISWIRTGIGYADSVKGRFTIFRDNAKNSLYLQMNSLRAEDTALYYCAKDMKGSGTYGGWFDTWGQGTLVTVSS
VL: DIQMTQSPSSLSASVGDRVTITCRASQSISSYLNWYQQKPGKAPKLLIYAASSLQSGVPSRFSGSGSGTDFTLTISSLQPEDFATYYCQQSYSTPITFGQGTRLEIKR
notes: also called 1D05 LC mutant 1
B5 came in with a Kd in experiment [2] of 2.66 nM.

B6: 1D05 V to A & F to S change in VH (Seq ID No: 342), IgG1 disabled (LAGA), with 1D05 kappa V to A change (Seq ID No: 50) (antibody, V domains shown)
VH: EVQLVESGGGLVQPGRSLRLSCAASGFTFDDYAMHWVRQAPGKGLEWVSGISWIRTGIGYADSVKGRFTISRDNAKNSLYLQMNSLRAEDTALYYCAKDMKGSGTYGGWFDTWGQGTLVTVSS
VL: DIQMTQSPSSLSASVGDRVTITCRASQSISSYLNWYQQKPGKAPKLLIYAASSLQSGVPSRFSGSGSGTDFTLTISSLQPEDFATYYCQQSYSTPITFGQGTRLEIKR
notes: See note of m60
As to B6, in experiment [2], the equilibrium dissociation constant (Kd) was 1.94 nM.

B7: 1D05 F to S change in VH (Seq ID No: 48), IgG1 disabled (LAGA), with 1D05 kappa (antibody, V domains shown)
VH: EVQLVESGGGLVQPGRSLRLSCAASGFTFDDYAMHWVRQVPGKGLEWVSGISWIRTGIGYADSVKGRFTISRDNAKNSLYLQMNSLRAEDTALYYCAKDMKGSGTYGGWFDTWGQGTLVTVSS
VL: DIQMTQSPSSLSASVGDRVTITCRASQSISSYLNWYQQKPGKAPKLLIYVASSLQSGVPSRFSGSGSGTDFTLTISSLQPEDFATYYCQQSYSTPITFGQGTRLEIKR
notes: Entry 48 is a whole heavy chain; also called 1D05 HC mutant 2
In experiment [2], B7 displayed a Kd of 0.23 nM.

B8: 1D05 V to A change in VH (Seq ID No: 47), IgG1 disabled (LAGA), with 1D05 kappa V to A change (Seq ID No: 50) (antibody, V domains shown)
VH: EVQLVESGGGLVQPGRSLRLSCAASGFTFDDYAMHWVRQAPGKGLEWVSGISWIRTGIGYADSVKGRFTIFRDNAKNSLYLQMNSLRAEDTALYYCAKDMKGSGTYGGWFDTWGQGTLVTVSS
VL: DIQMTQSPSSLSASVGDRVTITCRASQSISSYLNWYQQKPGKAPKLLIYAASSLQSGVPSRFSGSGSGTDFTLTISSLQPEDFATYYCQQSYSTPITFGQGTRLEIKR
notes: See note of m58
The molecule B8 had a Kd in experiment [2] of 2.8 nM.

B9: 411D07 (antibody, human IgG1, kappa, V domains shown)
VH: QVQLQESGPGLVKPSGTLSLTCIVSGGSIISSDWWNWVRQPPGKGLEWIGEIFHSGRTNYNPSLKSRVTISIDKSKNQFSLRLSSVTAADTAVYYCARDGSGSYWGQGTLVTVSS
VL: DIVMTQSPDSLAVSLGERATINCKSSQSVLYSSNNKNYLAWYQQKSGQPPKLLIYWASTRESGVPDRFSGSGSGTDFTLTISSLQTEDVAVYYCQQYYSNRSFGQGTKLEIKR
B9 registered an IC50 in experiment [1] of 9.06 nM.

B10: 386H03 (antibody, human IgG1, kappa, V domains shown)
VH: QVQLQESGPGLVKPSGTLSLTCAVSGGSISSSDWWSWVRQPPGKGLEWIGEIFHSGNTNYNPSLKSRVTISVDKSKNQISLRLNSVTAADTAVYYCVRDGSGSYWGQGTLVTVSS
VL: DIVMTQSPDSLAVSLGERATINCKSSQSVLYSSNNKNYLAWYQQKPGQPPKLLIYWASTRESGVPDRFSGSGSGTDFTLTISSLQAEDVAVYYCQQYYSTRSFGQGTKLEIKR
Take B10: in experiment [1], half-maximal inhibition (IC50) required 0.74 nM.

B11: 413D08 (antibody, human IgG1, kappa, V domains shown)
VH: QVQLVESGGGVVQPGRSLRLSCAASGFTFRIYGMHWVRQAPGKGLEWVAVIWYDGSNKYYADSVKGRFTISRDNSDNTLYLQMNSLRAEDTAVYYCARDMDYFGMDVWGQGTTVTVSS
VL: DLQMTQSPSSLSASVGDRVTITCRASQGIRNDLGWYQQKPGKAPKRLIYAASSLQSGVPSRFSGSGSGTEFTLTISSLQPEDFATYYCLQHNSYPRTFGQGTKVEIKR
As for B11, the IC50 in experiment [3] was determined as 1.2 nM; in experiment [1] it was 0.67 nM.

B12: 411B08 (antibody, human IgG1, kappa, V domains shown)
VH: EVQLVESGGGLVQPGGSLRLSCAASGFTFSSYWMSWVRQAPGKGLEWVANIKEDGSEKYYVDSVKGRFTISRDNAKNSLYLQMNSLRAEDTSVYYCARNRLYSDFLDNWGQGTLVTVSS
VL: DIQMTQSPSSVSASVGDRVTITCRASQGVSSWLAWYQQKSGKAPKLLIYGASSLQSGVPSRFSGSGSGTEFILTISSLQPEDFATYYCQQANSIPFTFGPGTKVDIKR
As to B12, the IC50 came to 2.22 nM in experiment [3] and 1.6 nM in experiment [1].

B13: 385F01 (antibody, human IgG1, kappa, V domains shown)
VH: EVQLVESGGGLVQPGGSLRLSCAASGFTFSSYWMSWVRQAPGKGLEWVANIKEDGSEKYYVDSVKGRFTISRDNAKNSLYLQMNSLRAEDTSVYYCARNRLYSDFLDNWGQGTLVTVSS
VL: DIQMTQSPSSVSASVGDRVTITCRASQGVSSWLAWYQQKSGKAPKLLIYGASSLQSGVPSRFSGSGSGTEFILTISSLQPEDFATYYCQQANSIPFTFGPGTKVDIKR
Regarding B13, the IC50 is 2.25 nM in experiment [3] and 1.76 nM in experiment [1].

B14: 411C04 (antibody, human IgG1, kappa, V domains shown)
VH: EVQLVDSGGGLVQPGGSLRLSCAASGFTFSSYWMSWVRQAPGKGLEWVANIKEDGSEKYYVDSLKGRFTISRDNAKNSLYLQMNSLRAEDTSVYYCARVRLYSDFLDYWGQGTLVTVSS
VL: DIQMTQSPSSVSASVGDRVTITCRASQGVSSWLAWYQQKSGKAPKLLIYGASSLQSGVPSRFSGSGSGTEFILSISSLQPEDFATYYCQQANSIPFTFGPGTKVDIKR
In the case of B14, the IC50 in experiment [3] came to 2.45 nM; in experiment [1] it was 1.93 nM.

(Values after patent US20210380699A1 (published 2021).)
